The binders below were run against T1, HLA-A2.1 (heavy chain with human beta 2-microglobulin) (human).
LLDGTATLRL [gp100 peptide G10-4 (LLDGTATLRL)] was tested, and the IC50 was 483 nM and the “Ratio to Standard” value was 0.01.
VLYRYGSFSV [gp100 peptide G10-5 (VLYRYGSFSV)] was tested, and the IC50 was 13 nM and the “Ratio to Standard” value was 0.38.

Biological target: T1, HLA-A2.1 (heavy chain with human beta …)
Remark: another data set of the same source
ATWGQYWQV [G9-154-1A] showed an IC50 of 5.2 nM.
Work on WLWGQYWQV [G9-154-1W2L] yielded an IC50 of 2.8 nM.
Binder YLWGQYWQV [G9-154-1Y2L] has an IC50 of 1.7 nM.
Binder FTWGQYWQV [G9-154-1F] has an IC50 of 1.6 nM.
For LTWGQYWQV [G9-154-1L], the IC50 was 3.4 nM.
FLWGQYWQV [G9-154-1F2L] was tested, and the IC50 was 2.6 nM.
With KMWGQYWQV [G9-154-2M] the IC50 was 6.5 nM.
With YTWGQYWQV [G9-154-1Y] the IC50 was 2.5 nM.
With KTYGQYWQV [G9-154-3Y] the IC50 was 30 nM.
For WTWGQYWQV [G9-154-1W], the IC50 was 60 nM.
ALWGQYWQV [G9-154-1A2L] showed an IC50 of 2.3 nM.
Binder KIWGQYWQV [G9-154-2I] has an IC50 of 3 nM.
Binder KLWGQYWQV [G9-154-2L] has an IC50 of 2 nM.
LLWGQYWQV [G9-154-1L2L] was tested, and the IC50 was 1.6 nM.
KTFGQYWQV [G9-154-3F] showed an IC50 of 21 nM.
